Measurements from article PMC6048055, “O2-inducible H2O2-forming NADPH oxidase is responsible for the hyper O2 sensitivity of Bifidobacterium longum subsp. infantis” (Scientific Reports, 2018).

Experiments:
[1] = tested on: NC(=O)C1=CN([C@@H]2O[C@H](COP(=O)(O)OP(=O)(O)OC[C@H]3O[C@@H](n4cnc5c(N)ncnc54)[C@H](O)[C@@H]3O)[C@@H](O)[C@H]2O)C=CC1; assay: purified protein; settings: O2 as electron acceptor (air saturated), 50 mM potassium phosphate pH 6.5, 37 °C, apparent Km
[2] = tested on: NC(=O)C1=CN([C@@H]2O[C@H](COP(=O)(O)OP(=O)(O)OC[C@H]3O[C@@H](n4cnc5c(N)ncnc54)[C@H](OP(=O)(O)O)[C@@H]3O)[C@@H](O)[C@H]2O)C=CC1; assay: purified protein; settings: O2 as electron acceptor (air saturated), 50 mM potassium phosphate pH 6.5, 37 °C, apparent Km
NADPH oxidase (NPOX) = target: T1, NADPH oxidase (NPOX) (Bifidobacterium longum, UniProt A0ACD7UUP8); assay: HPLC of flavin extracted from purified enzyme; UV-Vis spectrum; assay type: binding; settings: co-purified bound flavin, flavoprotein absorbance maxima […] nm
T1 construct: gene Blon_2447; native enzyme purified from B. infantis cells; 254 residues; 29 kDa by SDS-PAGE
T1 sequence (A0ACD7UUP8 52-305): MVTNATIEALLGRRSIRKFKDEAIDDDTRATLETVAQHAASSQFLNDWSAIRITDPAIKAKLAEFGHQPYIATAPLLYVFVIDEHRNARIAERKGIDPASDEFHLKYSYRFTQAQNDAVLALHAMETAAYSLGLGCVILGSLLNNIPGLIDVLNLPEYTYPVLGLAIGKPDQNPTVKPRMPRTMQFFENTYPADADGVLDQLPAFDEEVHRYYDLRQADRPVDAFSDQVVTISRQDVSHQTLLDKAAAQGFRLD

Molecule	Km [1] [µM]	Km [2] [µM]	HPLC of flavin extracted from purified enzyme; UV-Vis spectrum (NADPH oxidase (NPOX))
NADPH oxidase (NPOX) (Bifidobacterium longum subsp. infantis ATCC 15697 = JCM 1222 = DSM 20088)	113.3 ± 7.3	1.38 ± 0.12	
Cc1cc2nc3c(=O)[nH]c(=O)nc-3n(C[C@H](O)[C@H](O)[C@H](O)COP(=O)(O)O)c2cc1C [FMN]			The bound flavin was identified as FMN by HPLC analysis
